Experimental data taken from publication PMC7534798.

T1: SPRTN-EQ (human, UniProt Q9H040 1-489, E112Q)
T1 sequence: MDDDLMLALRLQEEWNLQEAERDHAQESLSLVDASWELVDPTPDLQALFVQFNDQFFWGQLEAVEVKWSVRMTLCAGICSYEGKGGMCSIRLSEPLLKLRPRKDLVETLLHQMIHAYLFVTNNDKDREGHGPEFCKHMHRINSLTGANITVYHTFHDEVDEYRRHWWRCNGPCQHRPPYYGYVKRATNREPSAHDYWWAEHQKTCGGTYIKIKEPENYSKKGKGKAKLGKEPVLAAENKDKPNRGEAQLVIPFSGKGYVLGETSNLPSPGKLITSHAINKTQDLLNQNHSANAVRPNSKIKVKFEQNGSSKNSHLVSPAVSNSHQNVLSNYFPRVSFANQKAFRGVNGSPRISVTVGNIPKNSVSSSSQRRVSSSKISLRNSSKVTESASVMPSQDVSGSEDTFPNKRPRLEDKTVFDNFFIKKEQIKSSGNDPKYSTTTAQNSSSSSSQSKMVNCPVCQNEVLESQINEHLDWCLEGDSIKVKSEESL

T2: SPRTN ZBD (human, UniProt Q9H040 151-215)
T2 sequence: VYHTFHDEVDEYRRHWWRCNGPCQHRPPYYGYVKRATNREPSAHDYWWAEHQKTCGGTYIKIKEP

T3: SPRTN ZBD-BR (human, UniProt Q9H040 151-245)
T3 sequence: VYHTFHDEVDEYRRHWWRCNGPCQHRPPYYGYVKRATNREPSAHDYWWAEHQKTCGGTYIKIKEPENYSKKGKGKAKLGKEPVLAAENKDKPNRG

B1: internal DPC dsDNA (X15) (dsDNA)
DNA 1: ACCAGTGCCTTGCTTGGACATCTTTGCCCA
DNA 2: TGGGCAAAGATGTCCAAGCAAGGCACTGGT
modifications: T15 is SH-C9-dT crosslinked to protein G; 3' phosphate on strand 1
B2: dsDNA DPC (C3A11XA12C3 + 30-mer) (dsDNA)
DNA 1: CCCAAAAAAAAAAATAAAAAAAAAAAACCC
DNA 2: GGGTTTTTTTTTTTTATTTTTTTTTTTGGG
modifications: T15 is SH-C9-dT crosslinked to protein G; 3' phosphate on strand 1
B3: ss/dsDNA junction DPC (C3A11XA12C3 + 15-mer) (mixed)
DNA 1: CCCAAAAAAAAAAATAAAAAAAAAAAACCC
DNA 2: GGGTTTTTTTTTTTT
modifications: T15 is SH-C9-dT crosslinked to protein G; 3' phosphate on strand 1

The binders below were run against T1, SPRTN-EQ (assay: EMSA).

Q: Does B1 bind?
A: binds

Q: Does TCCAGTGCCTTGCTAGGACATCTTTGCCCA (ssDNA, T1 is SH-C9-dT crosslinked to protein G; 3' phosphate) [5' DPC ss (X1)] bind?
A: binds

Q: Does B2 bind?
A: binds

Q: Does ACCAGTGCCTTGCTTGGACATCTTTGCCCA (ssDNA, T15 is SH-C9-dT crosslinked to protein G; 3' phosphate) [internal DPC ss (X15)] bind?
A: binds

Q: Does ACCAGTGCCTTGCTAGGACATCTTTGCCCT (ssDNA, T30 is SH-C9-dT crosslinked to protein G; 3' phosphate) [3' DPC ss (X30)] bind?
A: binds

Q: Does GATGTCCTAGCAAGG (structured_DNA) [15-mer hairpin (oJS_106)] bind?
A: binds

Q: Does B3 bind?
A: binds

What follows are binders tested against T2, SPRTN ZBD (assay: NMR).

Q: Does AAAAAAAAAAAAAAA (ssDNA) [poly(dA) 15-mer] bind?
A: binds

Each binder was assayed against T3, SPRTN ZBD-BR (assay: NMR).

Q: Does AAAAAAAAAAAAAAA (ssDNA) [poly(dA) 15-mer] bind?
A: binds
